Assay results published in patent US20190359693A1.

How the values were obtained:
Experiment in all cases: cell-based or functional assay
[1] = molecular target: hemagglutinin (HA) of influenza virus H3N2 A/HK/1174/99 (influenza A virus)
[2] = molecular target: hemagglutinin (HA) of influenza virus H3N2 A/Aichi/2/68 (influenza A virus) (UniProt P03437)
[3] = molecular target: hemagglutinin (HA) of influenza virus B/Brisbane/60/08 (Victoria) (influenza B virus)
[4] = molecular target: hemagglutinin (HA) of influenza virus H9N2 A/HK/466419/09 (influenza A virus)
[5] = molecular target: hemagglutinin (HA) of influenza B/Florida/04/06 (Yamagata) (influenza B virus)
[6] = molecular target: hemagglutinin (HA) of influenza virus H1N1 A/WSN/33 (influenza A virus) (UniProt P03454)
[7] = molecular target: hemagglutinin (HA) of influenza virus B/Malaysia/2506/04 (Victoria) (influenza B virus)
[8] = molecular target: hemagglutinin (HA) of influenza virus H1N1 A/California/07/09 (influenza A virus)
[9] = molecular target: hemagglutinin (HA) of influenza virus H3N2 A/Hiroshima/52/05 (influenza A virus)
[10] = molecular target: hemagglutinin (HA) of influenza virus H4 A/WF/HK/MPA892/06 (influenza A virus)
[11] = molecular target: hemagglutinin (HA) of influenza virus H5N2 A/Eurasian Wigeon/MPF461/07 (influenza A virus)
[12] = molecular target: hemagglutinin (HA) of influenza virus H1N2 A/Env/HK/MPU3156/05 (influenza A virus)
[13] = molecular target: hemagglutinin (HA) of influenza virus H3N2 A/Fukui/45/04 (influenza A virus)
[14] = molecular target: hemagglutinin (HA) of influenza virus H1N1 A/Puerto Rico/8/34-MA (influenza A virus)
[15] = molecular target: hemagglutinin (HA) of influenza virus H10N3 A/Common Teal/MPH11/08 (influenza A virus)
[16] = molecular target: hemagglutinin (HA) of influenza virus H1N1 A/New Caledonia/20/99 (influenza A virus)
[17] = molecular target: hemagglutinin (HA) of influenza virus H1N1 A/Christchurch/16/10 (influenza A virus)
[18] = molecular target: hemagglutinin (HA) of influenza virus H1N1 A/Mississippi/03/01 274H (influenza A virus)
[19] = molecular target: hemagglutinin (HA) of influenza virus H8N2 A/Env/MPJ1258/09 (influenza A virus)
[20] = molecular target: hemagglutinin (HA) of influenza virus H3N2 A/Perth/16/09 (influenza A virus)
[21] = molecular target: hemagglutinin (HA) of influenza virus H10N9 A/Northern Shoveler/MPE2531/08 (influenza A virus)
[22] = molecular target: hemagglutinin (HA) of influenza virus H6N1 A/Eurasian Wigeon/MPG1884/09 (influenza A virus)
[23] = molecular target: hemagglutinin (HA) of influenza virus B/Lee/40 (Old) (influenza B virus) (UniProt P03460)
Sequence of hemagglutinin (HA) of influenza virus B/Lee/40 (Old) (influenza B virus) (P03460 16-584 limits assumed): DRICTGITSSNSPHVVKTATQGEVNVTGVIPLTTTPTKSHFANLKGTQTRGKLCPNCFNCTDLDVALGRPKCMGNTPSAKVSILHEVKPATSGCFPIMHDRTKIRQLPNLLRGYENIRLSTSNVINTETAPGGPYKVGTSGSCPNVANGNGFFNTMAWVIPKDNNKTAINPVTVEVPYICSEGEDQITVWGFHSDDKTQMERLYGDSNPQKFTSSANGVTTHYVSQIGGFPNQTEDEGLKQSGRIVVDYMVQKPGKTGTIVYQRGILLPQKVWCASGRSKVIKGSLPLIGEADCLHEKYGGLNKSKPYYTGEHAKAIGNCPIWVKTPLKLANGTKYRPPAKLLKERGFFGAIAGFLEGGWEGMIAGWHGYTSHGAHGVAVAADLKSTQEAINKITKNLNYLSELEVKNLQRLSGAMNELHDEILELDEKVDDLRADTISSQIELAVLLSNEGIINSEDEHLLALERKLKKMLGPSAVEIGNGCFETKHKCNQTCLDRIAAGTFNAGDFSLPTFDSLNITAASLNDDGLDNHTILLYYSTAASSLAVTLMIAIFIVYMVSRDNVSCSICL

[24] = molecular target: hemagglutinin (HA) of influenza virus H3N2 A/Brisbane/10/07 (influenza A virus)
[25] = molecular target: hemagglutinin (HA) of influenza virus H3N2 A/Wisconsin/67/05 (influenza A virus)
[26] = molecular target: hemagglutinin (HA) of influenza virus H7N7 A/PR8 H7N7-NY (influenza A virus)
[27] = molecular target: hemagglutinin (HA) of influenza virus H7N3 A/NIBRG/60 (A/mallard/Netherlands/12/00) (influenza A virus)
[28] = molecular target: hemagglutinin (HA) of influenza virus H5N1 A/Vietnam/1194/04 (influenza A virus)
[29] = molecular target: hemagglutinin (HA) of influenza virus H7N7 A/Common Teal/MPF139/07 (influenza A virus)
[30] = molecular target: hemagglutinin (HA) of influenza virus H14N5 A/Mallard/Astrakhan/263/1982 (influenza A virus)
[31] = molecular target: hemagglutinin (HA) of influenza virus H5N2 A/Eurasian Wigeon/HK/MPF333/07 (influenza A virus)
[32] = molecular target: hemagglutinin (HA) of influenza virus H2N2 A/Env/HK/MPU3156/05 (influenza A virus)
[33] = molecular target: hemagglutinin (HA) of influenza B/Brisbane/60/08 (Victoria) (influenza B virus)
[34] = molecular target: hemagglutinin (HA) of influenza virus H9N2 A/Great Cormorant/MP2934/04 (influenza A virus)
[35] = molecular target: hemagglutinin (HA) of influenza virus H2N2 A/AnnArbor/23/57 (influenza A virus)
[36] = molecular target: hemagglutinin (HA) of influenza virus H1N1 A/HK/54/98 (influenza A virus)
[37] = molecular target: hemagglutinin (HA) of influenza virus H5N1 A/PR8 H5N1 HK97 (influenza A virus)
[38] = molecular target: hemagglutinin (HA) of influenza virus H3N2 A/Panama/2007/99 (influenza A virus)
[39] = molecular target: hemagglutinin (HA) of influenza virus H5N1 A/Indonesia/5/05 (influenza A virus)
[40] = molecular target: hemagglutinin (HA) of influenza virus H9N2 A/Ck/HK/SSP176/09 (influenza A virus)
[41] = molecular target: hemagglutinin (HA) of influenza virus H1N1 A/Brisbane/59/07 (influenza A virus)
[42] = molecular target: hemagglutinin (HA) of influenza virus B/Massachusetts/02/12 (Yamagata) (influenza B virus)
[43] = molecular target: hemagglutinin (HA) of influenza virus H4N1 A/Northern Pintail/MPB1368/06 (influenza A virus)
[44] = molecular target: hemagglutinin (HA) of influenza virus H7N9 A/Shanghai/2/13 (influenza A virus)

B1: MD2407 (bispecific antibody)
chain: EVQLVESGGGLVQPGGSLRLSCAVSISIFDIYAMDWYRQAPGKQRDLVATSFRDGSTNYADSVKGRFTISRDNAKNTLYLQMNSLKPEDTAVYLCHVSLYRDPLGVAGGMGVYWGKGALVTVSSGGGGSGGGGSEVQLVESGGGLVQAGGSLKLSCAASGRTYAMGWFRQAPGKEREFVAHINALGTRTYYSDSVKGRFTISRDNAKNTEYLEMNNLKPEDTAVYYCTAQGQWRAAPVAVAAEYEFWGQGTQVTVSSGGGGSGGGGSEVQLVESGGGLVQPGGSLRLSCAATGFTLENKAIGWFRQTPGSEREGVLCISKSGSWTYYTDSMRGRFTISRDNAENTVYLQMDSLKPEDTAVYYCATTTAGGGLCWDGTTFSRLASSWGQGTQVTVSSGGGGSGGGGSEVQLVESGGGLVQPGGSLKLSCAASGFTFSTSWMYWLRQAPGKGLEWVSVINTDGGTYYADSVKDRFTISRDNAKDTLYLQMSSLKSEDTAVYYCAKDWGGPEPTRGQGTQVTVSS
B1 was tested, and the average neutralization titer [1] was 76 nM, the average neutralization titer [2] was 9.9 nM and the average neutralization titer [3] was 4.1 nM. The average neutralization titer [4] was 53.9 nM, the ADCC induction (EC50 grade, FcγRIIIa reporter bioassay) [5] was > 0.5 µg/mL and the average neutralization titer [6] was 4.8 nM. It also gave an average neutralization titer [7] of 9.2 nM, an average neutralization titer [8] of 3.4 nM and an average neutralization titer [9] of 10.5 nM. It also gave an average neutralization titer [10] of 6.8 nM, an average neutralization titer [11] of 16.6 nM and an average neutralization titer [12] of 25.6 nM. It also gave an average neutralization titer [13] of 19.2 nM, an average neutralization titer [14] of 7.3 nM and an average neutralization titer [15] of 19.3 nM. The average neutralization titer [16] was 5.7 nM, the average neutralization titer [17] was 1.3 nM and the average neutralization titer [18] was 4.8 nM. The average neutralization titer [19] was 8.8 nM, the average neutralization titer [20] was 8.1 nM and the average neutralization titer [21] was 35 nM. It also gave an average neutralization titer [22] of 20.6 nM, an average neutralization titer [23] of 18.4 nM and an average neutralization titer [24] of 10.6 nM. For the same binder, the average neutralization titer [25] was 19.1 nM, the average neutralization titer [26] was 22.3 nM and the average neutralization titer [27] was 13.8 nM. The average neutralization titer [28] was 9.2 nM, the average neutralization titer [29] was 57.4 nM and the average neutralization titer [30] was 19.2 nM. For the same binder, the average neutralization titer [31] was 26 nM, the average neutralization titer [32] was 19.2 nM and the ADCC induction (EC50 grade, FcγRIIIa reporter bioassay) [33] was > 0.5 µg/mL. The average neutralization titer [34] was 19.6 nM, the average neutralization titer [35] was 101 nM and the average neutralization titer [36] was 10.3 nM. For the same binder, the average neutralization titer [37] was 3.6 nM, the average neutralization titer [38] was 14.9 nM and the average neutralization titer [39] was 16.2 nM. For the same binder, the average neutralization titer [40] was 23 nM, the average neutralization titer [41] was 3.7 nM and the average neutralization titer [42] was 3 nM. For the same binder, the average neutralization titer [43] was 8.2 nM and the average neutralization titer [44] was 54.2 nM.
